Results from patent US20200102387A1 (CELGENE, published 2020).

T1: mouse SIRPα on cells (mouse, UniProt P97797 32-513)
T1 construct: whole, on cells; also called mouse SIRPα-CHO-K1; Ms SIRPα-CHO-K1
T1 sequence (looked up): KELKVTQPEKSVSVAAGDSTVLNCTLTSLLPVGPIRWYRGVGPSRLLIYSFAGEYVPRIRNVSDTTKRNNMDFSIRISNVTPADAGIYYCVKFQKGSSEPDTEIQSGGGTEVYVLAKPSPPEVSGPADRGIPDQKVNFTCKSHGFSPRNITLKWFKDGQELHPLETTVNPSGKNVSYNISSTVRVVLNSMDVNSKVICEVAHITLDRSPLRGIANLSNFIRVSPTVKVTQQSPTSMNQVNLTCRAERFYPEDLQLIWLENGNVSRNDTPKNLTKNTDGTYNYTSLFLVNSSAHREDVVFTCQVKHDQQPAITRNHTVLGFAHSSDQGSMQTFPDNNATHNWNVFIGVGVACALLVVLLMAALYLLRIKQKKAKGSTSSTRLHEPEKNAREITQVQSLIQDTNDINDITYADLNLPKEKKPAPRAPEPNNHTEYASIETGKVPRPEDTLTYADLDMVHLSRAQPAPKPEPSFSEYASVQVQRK

T2: cynomolgus SIRPα on cells (cynomolgus, UniProt P78324 31-373 (human entry))
T2 construct: also called cyno SIRPα-CHO; Cyno SIRPα-CHO-K1; not shown: Transmembrane and cytoplasmic region of cynomolgus SIRPα
T2 chain: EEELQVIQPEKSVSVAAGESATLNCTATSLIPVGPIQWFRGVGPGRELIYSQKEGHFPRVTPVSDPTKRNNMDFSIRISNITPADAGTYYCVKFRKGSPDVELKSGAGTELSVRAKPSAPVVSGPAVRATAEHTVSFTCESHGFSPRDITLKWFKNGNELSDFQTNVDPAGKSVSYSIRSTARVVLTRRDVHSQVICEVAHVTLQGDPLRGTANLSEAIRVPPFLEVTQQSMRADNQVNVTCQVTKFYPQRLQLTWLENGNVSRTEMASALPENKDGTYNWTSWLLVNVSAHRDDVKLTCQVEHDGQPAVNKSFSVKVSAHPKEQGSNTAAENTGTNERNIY


Key:
mouse SIRPα on cells = molecular target: T1, mouse SIRPα on cells; assay: flow cytometry of mouse CD11b positive cells, FL2-H anti-human PE; concentration not given
human SIRPβ-Fc = molecular target: T3, human SIRPβ-Fc (human); assay: BLI Octet, antigen-Fc on biosensor;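 further: antigen captured on the biosensor tip and then immersed in solutions of the test antibodies, which act as the analyte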
T3 construct: a signal peptide may be part of the entry

[1] = molecular target: T4, human SIRPα v4-Fc (SIRPα4 extracellular domain fused to human IGHG1_Fc) (human, UniProt P78324 31-373; P0DOX5 223-449 = IgG part); assay: BLI Octet, antigen-Fc on biosensor;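 further: antigen captured on the biosensor tip and then immersed in solutions of the test antibodies, which act as the analyte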
T4 construct: as m38; also called V4 (e.g. SIRPα4)

[2] = molecular target: T5, human SIRPα v5-Fc (SIRPα5 extracellular domain fused to human IGHG1_Fc) (human, UniProt P78324 31-373; P0DOX5 223-449 = IgG part); assay: BLI Octet, antigen-Fc on biosensor;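 further: antigen captured on the biosensor tip and then immersed in solutions of the test antibodies, which act as the analyte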
T5 construct: as m38; also called V5 (e.g. SIRPα5)

[3] = molecular target: T6, human SIRPα v6-Fc (SIRPα6 extracellular domain fused to human IGHG1_Fc) (human, UniProt P78324 31-373; P0DOX5 223-449 = IgG part); assay: BLI Octet, antigen-Fc on biosensor;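 further: antigen captured on the biosensor tip and then immersed in solutions of the test antibodies, which act as the analyte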
T6 construct: as m38; also called V6 (e.g. SIRPα6)

[4] = molecular target: T7, human SIRPα v3-Fc (SIRPα3 extracellular domain fused to human IGHG1_Fc) (human, UniProt P78324 31-373; P0DOX5 223-449 = IgG part); assay: BLI Octet, antigen-Fc on biosensor
T7 construct: as m38; also called V3 (e.g. SIRPα3)

[5] = molecular target: T8, human SIRPα v1-Fc (SIRPα1 extracellular domain fused to human IGHG1_Fc) (human, UniProt P78324 31-373; P0DOX5 223-449 = IgG part); assay: BLI Octet, antigen-Fc on biosensor
T8 construct: also called V1 (e.g. SIRPα1); SIRPα V1: DLN

human SIRPγ-Fc = molecular target: T9, human SIRPγ-Fc (human); assay: BLI Octet, antigen-Fc on biosensor
T9 construct: a signal peptide may be part of the entry

[6] = molecular target: T10, human SIRPα v2-Fc (SIRPα2 extracellular domain fused to human IGHG1_Fc) (human, UniProt P78324 31-373; P0DOX5 223-449 = IgG part); assay: BLI Octet, antigen-Fc on biosensor
T10 construct: as m38; also called V2 (e.g. SIRPα2); SIRPα V2:ESE

mouse SIRPα-Fc = molecular target: T11, mouse SIRPα-Fc (mouse); assay: BLI Octet, antigen-Fc on biosensor
T11 construct: a signal peptide may be part of the entry; also called Ms; Ms SIRPα-Fc

cyno SIRPα-Fc = molecular target: T12, cyno SIRPα-Fc (cynomolgus); assay: BLI Octet, antigen-Fc on biosensor
T12 construct: a signal peptide may be part of the entry

human SIRPα on cells = molecular target: T13, human SIRPα on cells (human, UniProt P78324 31-504); assay: cell binding, Hu SIRPα-CHO-K1 cells, 100 nM antibody
T13 construct: whole, on cells; also called human SIRPα-CHO; Hu SIRPα-CHO-K1

[7] = molecular target: T2, cynomolgus SIRPα on cells; assay: cell binding, Cyno SIRPα-CHO-K1 cells, 100 nM antibody
FcγR1 (CD64) = molecular target: T14, FcγR1 (CD64) (human, UniProt P12314 16-374); assay: cell binding, FcγR-engineered HEK293 cells
T14 construct: whole, on cells
T14 sequence (P12314 16-374): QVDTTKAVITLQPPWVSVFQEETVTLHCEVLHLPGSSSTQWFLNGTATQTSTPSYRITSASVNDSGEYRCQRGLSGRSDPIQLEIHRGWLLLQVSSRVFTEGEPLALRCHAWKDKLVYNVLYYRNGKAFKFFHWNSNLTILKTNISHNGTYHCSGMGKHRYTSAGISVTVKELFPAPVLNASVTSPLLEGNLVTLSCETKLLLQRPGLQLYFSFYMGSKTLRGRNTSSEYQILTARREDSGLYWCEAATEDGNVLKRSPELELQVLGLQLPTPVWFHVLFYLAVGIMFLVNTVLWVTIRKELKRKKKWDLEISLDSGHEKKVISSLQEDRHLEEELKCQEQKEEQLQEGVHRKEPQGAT

FcγR3A (CD16aV158) = molecular target: T15, FcγR3A (CD16aV158) (human, UniProt P08637 17-254); assay: cell binding, FcγR-engineered HEK293 cells
T15 construct: whole, on cells
T15 sequence (P08637 17-254 F176V): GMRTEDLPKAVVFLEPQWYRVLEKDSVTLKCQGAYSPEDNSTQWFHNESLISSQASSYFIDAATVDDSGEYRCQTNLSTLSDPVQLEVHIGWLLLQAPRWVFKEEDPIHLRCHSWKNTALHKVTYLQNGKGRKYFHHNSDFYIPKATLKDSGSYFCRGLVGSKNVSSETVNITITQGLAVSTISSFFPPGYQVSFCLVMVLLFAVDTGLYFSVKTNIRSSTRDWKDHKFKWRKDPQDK

| binding result (mouse SIRPα on cells) | Kd (human SIRPβ-Fc) | koff (human SIRPβ-Fc) | kon (human SIRPβ-Fc) | Kd [1] | koff [1] | kon [1] | Kd [2] | koff [2] | kon [2] | Kd [3] | koff [3] | kon [3] | Kd [4] | koff [4] | kon [4] | Kd [5] | koff [5] | kon [5] | Kd (human SIRPγ-Fc) | Binder | other results |
| --- | --- | --- | --- | --- | --- | --- | --- | --- | --- | --- | --- | --- | --- | --- | --- | --- | --- | --- | --- | --- | --- |
| no binding | 0.32 nM | 0.000473 s⁻¹ | 1.49e+06 M⁻¹ s⁻¹ | 1.52 nM | 0.00228 s⁻¹ | 1.5e+06 M⁻¹ s⁻¹ | 0.611 nM | 0.00106 s⁻¹ | 1.73e+06 M⁻¹ s⁻¹ | 0.183 nM | 0.000356 s⁻¹ | 1.94e+06 M⁻¹ s⁻¹ | 0.145 nM | 0.0002 s⁻¹ | 1.38e+06 M⁻¹ s⁻¹ | 0.13 nM | 0.0002 s⁻¹ | 1.49e+06 M⁻¹ s⁻¹ | 0.13 nM | SIRPAB-11 (antibody, human IgG1, kappa, also called SIRPAB-11-IgG1; SIRPAB-11 IgG1 antibody) light: DIQMTQSPSSVSASVGDRVTITCRASQGISSWLAWYQQKPGKAPKLLIYAASNLQSGVPSRFSGSGSGTDFTLTISSLQPEDFATYYCQQGASFPITFGGGTKVEIKRTVAAPSVFIFPPSDEQLKSGTASVVCLLNNFYPREAKVQWKVDNALQSGNSQESVTEQDSKDSTYSLSSTLTLSKADYEKHKVYACEVTHQGLSSPVTKSFNRGEC heavy: not shown | koff (human SIRPγ-Fc): 0.000205 s⁻¹; kon (human SIRPγ-Fc): 1.57e+06 M⁻¹ s⁻¹; Kd [6]: 4.4 nM; koff [6]: 0.00559 s⁻¹; kon [6]: 1.27e+06 M⁻¹ s⁻¹; binding result (mouse SIRPα-Fc): no binding; Kd (cyno SIRPα-Fc): 4.9 nM; koff (cyno SIRPα-Fc): 0.00869 s⁻¹; kon (cyno SIRPα-Fc): 1.77e+06 M⁻¹ s⁻¹; fold increase over background (100 nM) (human SIRPα on cells): 1890 fold; fold increase over background (100 nM) [7]: 1950 fold |
| no binding | 3.35 nM | 0.00445 s⁻¹ | 1.33e+06 M⁻¹ s⁻¹ | 8.13 nM | 0.0109 s⁻¹ | 1.35e+06 M⁻¹ s⁻¹ | 4.87 nM | 0.00697 s⁻¹ | 1.43e+06 M⁻¹ s⁻¹ | 1.58 nM | 0.00256 s⁻¹ | 1.63e+06 M⁻¹ s⁻¹ | 0.53 nM | 0.000694 s⁻¹ | 1.31e+06 M⁻¹ s⁻¹ | 0.81 nM | 0.00107 s⁻¹ | 1.31e+06 M⁻¹ s⁻¹ | 1.49 nM | SIRPAB-12 (antibody, human IgG1, kappa) light: DIQMTQSPSSVSASVGDRVTITCRASQGISSWLAWYQQKPGKAPKLLIYAASNLQSGVPSRFSGSGSGTDFTLTISSLQPEDFATYYCQQGASFPITFGGGTKVEIKRTVAAPSVFIFPPSDEQLKSGTASVVCLLNNFYPREAKVQWKVDNALQSGNSQESVTEQDSKDSTYSLSSTLTLSKADYEKHKVYACEVTHQGLSSPVTKSFNRGEC heavy: not shown | koff (human SIRPγ-Fc): 0.00218 s⁻¹; kon (human SIRPγ-Fc): 1.46e+06 M⁻¹ s⁻¹; Kd [6]: 15.4 nM; koff [6]: 0.0151 s⁻¹; kon [6]: 980000 M⁻¹ s⁻¹; binding result (mouse SIRPα-Fc): no binding; fold increase over background (100 nM) (human SIRPα on cells): 2350 fold; fold increase over background (100 nM) [7]: 2220 fold |
| – | – | – | – | – | – | – | – | – | – | – | – | – | – | – | – | – | – | – | – | SIRPAB-11-AAS (antibody, human IgG1, kappa, L234A L235A, also called SIRPAB-11-IgG1-AAS) light: DIQMTQSPSSVSASVGDRVTITCRASQGISSWLAWYQQKPGKAPKLLIYAASNLQSGVPSRFSGSGSGTDFTLTISSLQPEDFATYYCQQGASFPITFGGGTKVEIKRTVAAPSVFIFPPSDEQLKSGTASVVCLLNNFYPREAKVQWKVDNALQSGNSQESVTEQDSKDSTYSLSSTLTLSKADYEKHKVYACEVTHQGLSSPVTKSFNRGEC heavy: QVQLVQSGAEVKKPGASVKVSCKASGYTFRGYGISWVRQAPGQGLEWMGWISAYGGETNYAQKLQGRVTMTTDTSTSTAYMELRSLRSDDTAVYYCAREAGSSWYDFDLWGRGTLVTVSSASTKGPSVFPLAPSSKSTSGGTAALGCLVKDYFPEPVTVSWNSGALTSGVHTFPAVLQSSGLYSLSSVVTVPSSSLGTQTYICNVNHKPSNTKVDKKVEPKSCDKTHTCPPCPAPEAAGGPSVFLFPPKPKDTLMISRTPEVTCVVVSVSHEDPEVKFNWYVDGVEVHNAKTKPREEQYNSTYRVVSVLTVLHQDWLNGKEYKCKVSNKALPAPIEKTISKAKGQPREPQVYTLPPSREEMTKNQVSLTCLVKGFYPSDIAVEWESNGQPENNYKTTPPVLDSDGSFFLYSKLTVDKSRWQQGNVFSCSVMHEALHNHYTQKSLSLSPGK | EC50 (FcγR1 (CD64)): 3180 nM; EC50 (FcγR3A (CD16aV158)): 15100 nM |
